# Measurements reported in the DeepSol protein solubility set.
# Assay: soluble on expression in E. coli; label from the status in PepcDB or PDB records
row,Sequence,soluble on expression in E. coli
1,MGSDKIHHHHHHMKIAFVSTRGIPNNYGGFEQFAEYISVGMAQRGHEVVVYSPKFHPYQESTYKGVRIKHIYSPETWMGSSVGSFFYDFASLRDALKKEDFDIIYEAGYTSIIPAYIWFNVKKRKRPIFTTNMDGLENKRSKFSPMVRRFLDWEEKMAVKYSHYLIADNMGIHDYYKEKYGKESKFLAYGADIHDDFKAEYLEEFGLKSEEYYILIARLEPENNIVMAIEGYLHSKENGRRPLIVVGKTNTPHGKELVEKYGNERNVEFVGGIYDFKKLDSVRHFSKAYFHGHSVGGTNPSLLEAMAAGCFIFAHDNIFNRAVLKENAFYYPSADKVTEYLNRIDTIAEGSKIQYTARNIEVIRNEYSWESLIDKHEKYFYWLLSQKQ,not soluble
2,MSLEVYFSGTIERIIFENPSNFYRILLLEIDDTDAEDFDDFEIIVTGTMADVIEGEDYTFWGQIVQHSKYGEQLQISRYDRAKPTSKGLVKYFSSSHFKGIGLKTAQKIVDTYGENTIDEILQHPEKLEGIAGLSAKNREAFVSTLRLNYGTEMILAKLANYGIPNKLAFQIQDFYKEETLDVVENYPYQLVEDIKGLGFTIADQLAEELGIESQAPERFRAGLVHSLFQACMETGDTYVEARDLLEQTLTLLESSRPVELDPSQVAQELSYLIEEDKVQQIDTKIFDNSLFFAEEGIRSHLVRILEKGKQKSHDLETIQKHITTVEQELGIEYDNIQKQAICDAIQNKVFILTGGPGTGKTTVINGIIAVYALLEGLDFRKKSNLPILLAAPTGRAARRMNELTGLPSATIHRHLGMTGDDDTSHLEDYLDADFIIVDEFSMVDTWLANQLFSNISSNSKILIVGDSDQLPSVSPGQVLADLLHIPLIPQTRLEKIYRQSKESTIVTLASQIRQGILPADFTQKKADRSYFEIASGHIPATIEKILGAALRNGIPARDIQVLAPMYRGTAGIDAINQLMQDLLNPPQKDQLSFEAPQCHYRKRDRVIHLVNDAEINVFNGDLGAITDLIPGKYTESKQDEIVIDFDGNEVSYPRNEWYKIRLAYAMSIHKSQGSEFPVVILPITSASRRMLERNLIYTAITRAKSKLILLGELQAFDYATQHIGTARKTYLIERFSDLLENVEEKQQAVSETVTSSASEQSYILTEENWDRIPAMIGITDTDLKEIFGKEGHHHHHH,soluble
3,MNRARKTSSCGCFRSAFCLLKPSTSSASEEHGDSDKKLLSVQLITPRDEEEQTSSRSIKIPPLDLNGLDCKKNAVAARRAGRRRTSEGGGVRGKGHFAEVVLDGLQRPVSLLRNQKEKSNSDDNCQEKEPTSPSSSRKKSYDNAPALESLEKLRYILHQLNSGQLPLEDLKRNIEYAALVLETAYMDETRRICDEDDDLAEVTPETVPDEVREWLAATFTRQNAGKKRDKPKFKSVANAIRTGIFFEKLFRKQQVVQCPIPPEIAELMKEVCTWSFSPFQLNEVSEGHALKYVGFELFNRYGFMDRFKVPLTALENYLSALEVGYSKHNNPYHNVVHAADVTQSSHFMLSQTGLANSLGDLELLAVLFGALIHDYEHTGHTNNFHIQSQSQFAMLYNDRSVLENHHVSSCFRLMKEDDKNILTHLTRDEYKELRNMVIEIVLATDMSTHFMQIKTMKSMLSLPEGIDKNKALCLIVHACDISHPAKPWNLHERWTEGVLEEFFRQGDLEASMGLPYSPLCDRHTVHVADSQIGFIDFIVEPTMVVCGELLVKMVEPLVSLPPTDSLFPPSVDGGDDKSPSNALSPLPDLRNSSTSPSSIRRIPLNYAGKLDIPTPWMKFLHENKAHWKERAAKEEEERKIKEAAEAEAAAKQVEENKENGVTTN,not soluble
4,MKEYLKEVLDVSGEKFFILNPMIPNMDSNKPNFIIGKKSLIYTGKFAKDWNSDEILEAFAKIVRTNPDFRLIVAGDKFNLHPENPNFKEEVTQKLKTYKNVDWVGGVTREEVQKLIQQSDIGIGWRNNSLNDSLELSTKALEYGALGKPVILNRTPMHERLFGSEYPFYANSEEEFISCITQSLTNDDIYASAAETVYKVCTDFTFAKTYERISPFLWEAKDKRIRLVFAGHDLKFAKMFIDRFASRTRYEVEIDQWKGHSVNDESHSTNCLNWADVIFCEWGLGNAVWYSHRVRQGQTLIVRMHLQERETKHYLKFNYDAIDSIIAISPYIRDEFVNNCGIPSDNMVMIYNAVNCKKFDLEKYEDTQFNLGITGICPSRKRLDRAIDIFEKLKEKDSRYTLHIKGQLPTHYPWLWKKEEEKKYYEQVFKRINSSKWRDSIIFDGFGNDMDTWFQKIGYILSTSDFESFHLAPAEGMASGAFPIIIRWEGCHTIYDEDFIFENVDEAATFILKRNQVMGPNDIDVRTYVRNRFDIEKIFGDWEELIARLR,not soluble
5,MATRFKGLSAFPITPADEAGRVDIEAFSALIARLDAAEVDSVGILGSTGIYMYLTREERRRAIEAAATILRGRRTLMAGIGALRTDEAVALAKDAEAAGADALLLAPVSYTPLTQEEAYHHFAAVAGATALPLAIYNNPTTTRFTFSDELLVRLAYIPNIRAIKMPLPADADYAGELARLRPKLSDDFAIGYSGDWGCTDATLAGGDTWYSVVAGLLPVPALQLMRAAQAGNAEEAKRLDATFQPLWALFKEFGSIRVIYAAANILSLTVSEPPRPILPLTSAERQRVEEALEALSALETAP,not soluble
6,LPYPIPIALTDALDRSVSAELVAVLVAVTQGEPRVLTTEDARALPAGPFELAHRSLQAGLRAWVETQTHHPLGYVEQLYTFADSDRSNEAGARVISVSYLGLTREAGATGVAQVGWQHWYRYFPWEDWRAGRPAIIADEIAPRLLAWAGAGADAAARAQRRQRVALTFGLDGAGWNEDMVLQRYELLFEAGLVPESRHPDASGLPVAGQSMRHDHRRILATGIAR,not soluble
7,MGSDKIHHHHHHMITEELEVGYNVPATVGMDEADIQTPCLILDLDALERNVKKMGDYAKAHNMRHRSHGKMHKSVDVQNLQEELGGAIGVCCQKVSEAEVFVRGGIKDVLVSNQVRNPAKIERLANLPKLGSTITVCVDDIDNVAELSAAATKAGTELNCYIEIDCGAGRCGVTTTEAVVEIAKAIDAAENLKFTGIQAYQGAMQHMDSFSDRKAKTQIAIDQVQEAIDALTEIGLKPEFVSGGGTGSYYFESNSGVFNELQCGSYAFMDADYGRILDEDGNRIDAGEWENALFILTSVMSHAKADKAIVDAGLKAQSVDSGLPFVYGRDDVEYVKCSDEHGVVSDPNGVLEINEKLKLVPGHCDPTCNVHDFYIGVRNGKVETVWPVSARGKMY,not soluble
8,RRRPLSCDAASQAGSNYPRCWNCGGPWGPGREDRFFCPQCRALQAPDPTRDYFSLMDCNRSFRVDTAKLQHRYQQLQRLVHPDFFSQRSQTEKDFSEKHSTLVNDAYKTLLAPLSRGLYLLKLHGIEIPERTDYEMDRQFLIEIMEINEKLAEAESEAAMKEIESIVKAKQKEFTDNVSSAFEQDDFEEAKEILTKMRYFSNIEEKIKLKKIPL,not soluble
9,MAHHHHHHMEDMYEMQHSNLRCLPENYNLRYYYYHLLSWPQLLYVQQDYNRNTVGYVLGKMDDEEVPDKKHGHITSLAVLRSHRKLGIASRVMRATMKEMDAEYGAHYCSLHVRKTNDAALHLYQDTLGFRCVGVEEKYYMDEEDAYHMKSFFHQANPGSYVDDHKRLIRKTVPGELEGGPAAAGASSPAVGGRGGDKNGKRGNDKAAKEISAKEREAAMAELLGLEVGGKGRAAGGGAGGKGKSGNSSGGGGKRGSGRQK,soluble
10,MGSDKIHHHHHHMMNKREQDYWIFSVELRESKVSEENGKSIVITPLGLSAKRILIAGTVSSKQSDDRMARISLADPIGSFYVTAFSGGFNPEEKAMVDSLEVDDKAMVMGKINPYRTSEGVYLFSIRPELVSKTGEDALRLWTLKAYYFAKRRIYAIREAQKLQDPKADELISLGYSRVEAEAAISSIKNFPGYDYQRILEAIETAIYSVSTPTQLPEVRSKILNYIKENDTDGKGCKYEDIVIAAKNMGIDQSTTDEILNTLGSSGEIFEISLKRYKAVEPE,not soluble
11,MGHHHHHHSHMVTPVTWMDNPIEVYVNDSVWVPGPTDDHCPAKPEEEGMMINISIGYHYPPICLGRAPGCLMPAVQNWLVEVPTVSPISRFTYHMVSGMSLRPRVNYLQDFSYQRSLKFRPKGKPCPKEIPKGSKNTEVLVWEECVANSAVILQNSEFGTIID,not soluble
12,MGSDKIHHHHHHMKKITKIEGNLANSFIKPKTRVVAYCRVSTDSNEQLVSLQAQKAHYETYIKANPEWEYAGLYYDEGISGTKKENRSDLLRMLSDCETGRIDLIITKSISRFARNTTDCLEMVRKLIDLGVHIYFEKENINTGSMESELMLSILSGLAESESISISENTKWAIQRRFQNGTFKISYPPYGYQNIDGQMIVNPKQAEVVKYIFAEVLSGKGTQKVANDLNQKGIPSKRRGRWTATTIRGILTNEKYTGDVILQKTYTDSHFNRHTNYGEKNMYLVENHHEAIISHEDFQAVDAILNQRAKEKSIEKRNSKYLNRYSFSSKIICSECGSTFKRRIHSSGRKYIAWCCSKHISNITECSMQFIRDDDIKTAFVTMMNKLIFGQKFILRPLLEGLRNQNNAASFHRIEELEIKIENNMEQSQVLTGLMAKGYLEPALYNKEKNSLVQERERLLAEKDQLTRFVNGNLAKVEEVNHLLRFATKSKMLTAYEDELFENYVEKIIVFSREEVGFELKCGITLKERLVN,not soluble
13,MGSDKIHHHHHHDWLDLNTTSSVETGQAIVTLDDAQIALNGIYRLASGHSYYGDNYWYYGDCRAADVQARITKGDGKRVSPYYEYNVLASDNLNIVLPWNTVYKVIRQTNNLIQKIESGSIQSSDTKELNRIKSEALVMRGLSLFNLTRLFGMPYTNDKGASLGVPIETSPSDPTHKPSRSTVAQCYEQVVSDMSNALSGLRQETSNGYINYWAAQALLSRVYLNMGEYQKAYDAATDVIKNNGGRYQLYSYEEYPNVWGQDFQSESLFELYITLSEPSGGTGGEGAPMVYANEATVDWNNLILSEDFLNLLNEDPKDVRHCLTKESVIENNTGLPAAAMHEKVYLAKFPGKTGDDPKTNNICIIRLSEVYLNAAEAGLKKGTDIEEAQGYLNDIISRRTTDTSQQVSTETFTLDRILKERRKELVGEGEVFYDYLRNGLAIERKGSWHLETLKASNAQKIEATDLRIALPIPQSEIDANPNIQQNPR,not soluble
14,MAQVSTTAGGAVGVNRSQSMLLSSQEVEQMSAKSYAGELQKARAAGRLNTDPALTARVRRVSQRLIAQTPSFRPDARNWRWEVNVLTTDDMNAYAMAGGKIMVYTGLVKQLKLSDAELAAVIGHEISHALREHTRENMSQAYAQQMGLGLVGALVGLNDSQLKLASLVGDVTLSKPHSRTMESEADIMGLELMARAGYDPNAAVNVWQKMQAAGGGGGMEFLSTHPSGPTRIRDLQAHIPQVWPLYQAAPKKGLEHHHHHH,not soluble
15,MTIYLVRHGESKSNYDNKHFRSYFCGQLDVPLTDTGTKSADDLCDYFKEKQIKHVYVSDLLRTQQTFEHIFPYDIASTTTPLLRERSLGVFEGEYKDEISANPKYEKYFNDPNFKDFRHSFSQKAPEGESYEDVYQRVEHFMNHVVNEDTQKDDIVIVAHQVVIRCLMVYFNKVSRAEAVDLKVENCKPYIIE,not soluble
16,MTPFAEAVRQLRERKGVTQKEMAAAIGVSPAYLSALEHGKRGKPSFDLLQRIAGYFNIIWDEAEELFFLAGSSDPKVVIDTVGLPPQYTAFANRLARDIRKLPPSVVEELSAVLQKSRSCD,not soluble
17,MGTPKPRILPWLVSQLDLGQLEGVAWVNKSRTRFRIPWKHGLRQDAQQEDFGIFQAWAEATGAYVPGRDKPDLPTWKRNFRSALNRKEGLRLAEDRSKDPHDPHKIYEFVNSGVGDFSQPDTS,soluble
18,YDRRVHRFRKNWERIIPTHSKIQYAGNMGLLSFGTGWDYGKRNQWETDLLLGFIPKYSSKKAKVTMTLKQNYMPWSINLGKGFSTEPLSCGLYLNTVFGNQFWVSEPERYPKGYYGFSSKVRIHVFMGQRLTYDIDPNRRFLAKSVTFFYEISTCDLYLISGVTNSYLRPRDYLSLSFGLKFQWL,not soluble
